B1: EEHEE_rd4_0763 (parent)
chain: LTVHVGNVTYHFDNPEQAEEWAKRMAKKYQGQIHVKDGQFRIE
B2: EHEE_rd2_1257 (parent)
chain: EEERTFTNEEEARKAKKEAEKRGLRVTVTKDGTTWRVRIG

Variants of: B1
Test: folding stability dG (cDNA display proteolysis); higher = more stable
Details: PBS, room temperature

| Variant | folding stability dG [kcal/mol] |
| --- | --- |
| A26H | 0.862 |
| A26F | 1.3 |
| A26R | 1.06 |
| Q39Y | 1.37 |
| Q39T | 1.29 |
| Q39C | 2.92 |
| Q39N | 1.66 |
| Q39M | 1.36 |
| Q39D | 1.63 |
| D13F | 1.36 |
| D13M | 1.49 |
| D13E | 1.6 |
| D13Y | 1.34 |
| D13N | 1.72 |
| D13A | 1.43 |
| D13Q | 1.57 |
| D13S | 1.7 |
| D37N | 1.43 |
| D37R | 0.615 |
| D37K | 0.884 |
| D37C | 2.15 |
| D37Q | 0.814 |
| D37V | 0.669 |
| D37I | 0.903 |

| Variant | folding stability dG [kcal/mol] |
| --- | --- |
| K28Q | 1.35 |
| K28L | 1.83 |
| K28M | 1.5 |
| K28R | 1.78 |
| K28A | 1.23 |
| K28Y | 1.72 |
| K28W | 1.6 |
| R24P | -0.675 |
| R24M | 1.85 |
| R24K | 1.63 |
| R24D | 0.976 |
| K36C | 2.46 |
| K36V | 2.24 |
| K36R | 1.51 |
| K36D | 1.51 |
| K36L | 1.7 |
| K36Q | 1.79 |
| A22I | 1.4 |
| A22T | 0.746 |
| A22P | -0.823 |
| A22H | 0.665 |
| M25I | 1.44 |
| M25N | 0.629 |
| V8T | 1.53 |

| Variant | folding stability dG [kcal/mol] |
| --- | --- |
| V8P | 0.43 |
| V8S | 1.37 |
| R41N | 1.66 |
| R41K | 1.38 |
| R41I | 2.6 |
| R41L | 1.98 |
| R41C | 2.95 |
| E19S | 1.39 |
| E19I | 1.87 |
| E19D | 1.06 |
| E19V | 1.69 |
| V3Q | 0.344 |
| V3D | 0.189 |
| V3H | 0.452 |
| V3Y | 0.756 |
| V3T | 0.36 |
| E43D | 1.44 |
| E43K | 1.23 |
| E43V | 1.99 |
| E43F | 1.69 |
| E43R | 1.36 |
| E43A | 1.34 |
| L1N | 2.06 |
| L1D | 0.974 |

| Variant | folding stability dG [kcal/mol] |
| --- | --- |
| L1G | 1.77 |
| L1V | 1.86 |
| L1F | 2.66 |
| L1Y | 2.92 |
| L1P | 1.73 |
| L1S | 2.03 |
| K23G | 1.02 |
| K23V | 1.56 |
| K23F | 1.61 |
| K23D | 0.88 |
| E16N | 1.56 |
| E16F | 1.63 |
| E16L | 1.68 |
| E16Y | 1.66 |
| E16P | 0.809 |
| E16G | 1.48 |
| E16C | 2.54 |
| E16H | 1.85 |
| E16M | 1.66 |
| G38H | 1.02 |
| G38V | 0.809 |
| G38C | 2.15 |
| G38L | 1.18 |
| G38D | 1.25 |

| Variant | folding stability dG [kcal/mol] |
| --- | --- |
| G38I | 0.869 |
| T9H | 1.47 |
| T9D | 1.01 |
| H34K | 1.6 |
| H34M | 1.69 |
| H34E | 1.5 |
| H34D | 1.26 |
| H34L | 1.75 |
| H34Q | 1.61 |
| G6R | 1.31 |
| G6V | 0.969 |
| G6K | 1.18 |
| G6I | 1.18 |
| G6C | 2.58 |
| G6Q | 1.18 |
| G6H | 1.69 |
| G6Y | 1.5 |
| G6N | 1.71 |
| N14Q | 1.37 |
| N14D | 1.81 |
| N14W | 1.24 |
| N14V | 1.39 |
| N14M | 1.31 |
| G31M | 2.06 |

| Variant | folding stability dG [kcal/mol] |
| --- | --- |
| G31E | 0.971 |
| G31W | 1.86 |
| G31N | 1.02 |
| G31L | 2.08 |
| G31V | 1.78 |
| G31I | 1.82 |
| G31D | 0.903 |
| Y10L | 0.997 |
| Y10K | 0.806 |
| Y10Q | 0.381 |
| Y10E | 0.183 |
| Y10H | 0.965 |
| Y10I | 0.978 |
| Y10P | 0.292 |
| I33T | 0.877 |
| I33C | 2.07 |
| I33E | 0.735 |
| I33K | 0.715 |
| H4P | 0.289 |
| H4W | 1.82 |
| H4R | 1.82 |
| H4A | 1.55 |
| H4Y | 1.59 |
| H4L | 1.88 |

| Variant | folding stability dG [kcal/mol] |
| --- | --- |
| K27Q | 1.66 |
| K27P | 0.724 |
| K27C | 2.38 |
| K27I | 1.76 |
| A18I | 1.01 |
| A18W | 1.11 |
| A18T | 0.517 |
| A18R | 0.882 |
| A18V | 0.996 |
| A18N | 0.045 |
| A18K | 0.701 |
| A18M | 1.21 |
| A18Y | 1.17 |
| A18S | 0.551 |
| Q17W | 1.54 |
| Q17L | 1.71 |
| Q17Y | 1.53 |
| Q17F | 1.36 |
| Q17C | 2.6 |
| Q17S | 1.64 |
| P15A | 1.7 |
| P15S | 1.69 |
| P15K | 1.78 |
| P15R | 1.88 |

| Variant | folding stability dG [kcal/mol] |
| --- | --- |
| N7H | 1.69 |
| N7V | 1.4 |
| N7M | 1.57 |
| N7I | 1.49 |
| I42Y | 1.12 |
| H11E | 1.23 |
| H11Q | 1.45 |
| H11M | 1.49 |
| H11W | 1.71 |
| H11P | 0.551 |
| E20N | 1.58 |
| E20D | 1.54 |
| F12L | 0.531 |
| F12W | 0.638 |
| F12H | 0 |
| F12C | 1.44 |
| F12I | 0.276 |
| F12G | -0.264 |
| F12E | -0.274 |
| V35Q | 1.2 |
| V35P | 0.636 |
| V35F | 2.22 |
| V35E | 1.21 |
| V35N | 1.18 |

| Variant | folding stability dG [kcal/mol] |
| --- | --- |
| Q32H | 1.81 |
| Q32N | 1.33 |
| Q32E | 1.56 |
| Q32R | 1.64 |
| Q32A | 1.52 |
| Q32L | 1.48 |
| T2P | 0.538 |
| T2W | 1.5 |
| T2Y | 1.59 |
| T2F | 1.58 |
| T2V | 1.61 |
| T2N | 1.14 |
| T2A | 1.51 |
| T2H | 1.53 |
| Q30V | 1.23 |
| Q30A | 1.64 |
| Q30R | 1.79 |
| Q30N | 2.06 |
| Q30G | 2.24 |
| V5I | 1.69 |
| V5P | 0.391 |
| V5D | 0.649 |
| V5M | 1.48 |
| V5H | 1.26 |

| Variant | folding stability dG [kcal/mol] |
| --- | --- |
| Y29T | 1.12 |
| Y29S | 0.788 |
| Y29P | 0.306 |
| W21G | 0.008 |
| W21R | -0.245 |
| W21L | 0.668 |
| W21M | 0.944 |
| W21T | 0.307 |
| W21H | 0.696 |
| W21A | 0.89 |
| W21S | 0.046 |
| W21N | 0.008 |
| F40D | 1.03 |
| F40L | 2.01 |
| F40K | 1.04 |
| F40E | 1.15 |
| F40M | 1.74 |

Variants of: B2
Test: as above
Details: PBS, room temperature

| Variant | folding stability dG [kcal/mol] |
| --- | --- |
| W35T | 0.358 |
| W35S | -0.143 |
| W35K | -0.11 |
| W35E | -0.181 |
| W35V | 0.55 |
| W35H | 0.478 |
| W35Q | -0.107 |
| W35R | 0.023 |
| W35F | 1.32 |
| W35N | -0.29 |
| W35Y | 1.35 |
| W35D | -0.409 |
| W35G | -0.505 |
| W35L | 0.579 |
| W35P | 0.178 |
| W35A | -0.238 |
| W35M | 0.332 |
| W35I | 1.3 |
| V37Y | -0.22 |
| V37M | 1.61 |
| V37C | 1.05 |
| V37F | 0.864 |
| V37L | 2.17 |
| V37W | 0.056 |
| V37E | 0.078 |
| V37I | 1.7 |

| Variant | folding stability dG [kcal/mol] |
| --- | --- |
| V37P | 0.556 |
| V37D | 0.331 |
| R38Q | 1.74 |
| R38W | 2.11 |
| R38M | 2.04 |
| R38G | 0.853 |
| R38E | 1.48 |
| R38I | 2.59 |
| R38V | 2.45 |
| R38D | 1 |
| R38F | 2.23 |
| R38T | 2.33 |
| R38H | 1.94 |
| R38Y | 2.17 |
| R38L | 2.27 |
| R38N | 1.71 |
| R38A | 1.71 |
| R38S | 1.93 |
| R38K | 2.08 |
| I39V | 1.64 |
| I39L | 1.31 |
| I39F | 1.75 |
| I39P | 0.239 |
| I39A | 0.675 |
| I39N | -0.51 |
| I39R | -0.309 |

| Variant | folding stability dG [kcal/mol] |
| --- | --- |
| I39W | 1.62 |
| I39T | 1.27 |
| I39M | 1.37 |
| I39H | 0.156 |
| I39S | 0.837 |
| I39K | -0.799 |
| I39E | 0.258 |
| I39Y | 1.66 |
| I39Q | 0.241 |
| I39G | -0.238 |
| T34Y | 2.4 |
| T34V | 2.62 |
| T34W | 2.08 |
| R36Y | 2.47 |
| R36E | 0.524 |
| R36G | -0.199 |
| R36W | 1.7 |
| R36P | 0.209 |
| R36T | 2.15 |
| R36N | 1.12 |
| R36K | 2.08 |
| R36S | 1.17 |
| R36L | 2.15 |
| R36H | 1.81 |
| R36F | 2.23 |
| R36Q | 1.23 |

| Variant | folding stability dG [kcal/mol] |
| --- | --- |
| R36I | 3.03 |
| R36M | 1.65 |
| R36C | 1.91 |
| R36A | 0.9 |
| R36V | 2.78 |
| G40P | 0.916 |
| G40H | 2.68 |
| G40M | 2.55 |
| G40D | 2.18 |
| G40R | 2.08 |
| G40V | 2.73 |
| G40W | 3.26 |
| G40L | 2.71 |
| G40A | 2.19 |
| G40F | 3.04 |
| G40I | 2.71 |
| G40T | 2.51 |
| G40Y | 3.08 |
| G40E | 2.56 |
| G40S | 2.6 |
| G40K | 2.07 |
| G40Q | 2.38 |
| G40N | 2.07 |

Source: the MegaScale stability set (Tsuboyama et al. 2023)
